{"source": "paper PMC12102759", "about": "(2025)", "parents": {"B1": {"name": "SH3BP2 peptide 410-425 (SH3 domain-binding protein 2), 16-mer library wild type / TNKS ANK (TNKS 12 ANK repeats, residues 174-649) (parent complex)", "chain 1": "LPHLQRSPPDGQSFRS", "chain 2": "TGVPAVSGALRELLEACRNGDVSRVKRLVDAANVNAKDMAGRKSSPLHFAAGFGRKDVVEHLLQMGANVHARDDGGLIPLHNACSFGHAEVVSLLLCQGADPNARDNWNYTPLHEAAIKGKIDVCIVLLQHGADPNIRNTDGKSALDLADPSAKAVLTGEYKKDELLEAARSGNEEKLMALLTPLNVNCHASDGRKSTPLHLAAGYNRVRIVQLLLQHGADVHAKDKGGLVPLHNACSYGHYEVTELLLKHGACVNAMDLWQFTPLHEAASKNRVEVCSLLLSHGADPTLVNCHGKSAVDMAPTPELRERLTYEFKGHSLLQAAREADLAKVKKTLALEIINFKQPQSHETALHCAVASLHPKRKQVTELLLRKGANVNEKNKDFMTPLHVAAERAHNDVMEVLHKHGAKMNALDTLGQTALHRAALAGHLQTCRLLLSYGSDPSIISLQGFTAAQMGNEAVQQILSESTPIRTSD"}}}
{"variants_of": "B1", "experiment": "proteomic peptide phage display deep mutational scan (ProP-PD DMS): M13 P8 16-mer library selected against immobilised GST-tagged bait for four days (rounds), NGS of the eluted pools per day and pseudo-replica; bait immobilised on MaxiSorp plates (10 µg), library pre-cleared on GST, 2 h binding at 4 °C, five washes; one round per day, days 1-4; value from days 2 and 3"}
{"variant": "chain 1 LPYLQRSPPDGQSFRS", "note": "[chain 1 H3Y]", "screen value": "0.00044 average fractional NGS count over selection days 2 and 3 (reads of this peptide / all reads for the bait, averaged over …"}
{"variant": "chain 1 LPTLQRSPPDGQSFRS", "note": "[chain 1 H3T]", "screen value": "0.000309 average fractional NGS count over selection days 2 and 3 (reads of this peptide / all reads for the bait, averaged over …"}
{"variant": "chain 1 LPGLQRSPPDGQSFRS", "note": "[chain 1 H3G]", "screen value": "0.000244 average fractional NGS count over selection days 2 and 3 (reads of this peptide / all reads for the bait, averaged over …"}
{"variant": "chain 1 LPVLQRSPPDGQSFRS", "note": "[chain 1 H3V]", "screen value": "0.00187 average fractional NGS count over selection days 2 and 3 (reads of this peptide / all reads for the bait, averaged over …"}
{"variant": "chain 1 LPMLQRSPPDGQSFRS", "note": "[chain 1 H3M]", "screen value": "0.0014 average fractional NGS count over selection days 2 and 3 (reads of this peptide / all reads for the bait, averaged over …"}
{"variant": "chain 1 LPALQRSPPDGQSFRS", "note": "[chain 1 H3A]", "screen value": "0.000153 average fractional NGS count over selection days 2 and 3 (reads of this peptide / all reads for the bait, averaged over …"}
{"variant": "chain 1 LPNLQRSPPDGQSFRS", "note": "[chain 1 H3N]", "screen value": "0.000146 average fractional NGS count over selection days 2 and 3 (reads of this peptide / all reads for the bait, averaged over …"}
{"variant": "chain 1 LLHLQRSPPDGQSFRS", "note": "[chain 1 P2L]", "screen value": "0.000238 average fractional NGS count over selection days 2 and 3 (reads of this peptide / all reads for the bait, averaged over …"}
{"variant": "chain 1 LIHLQRSPPDGQSFRS", "note": "[chain 1 P2I]", "screen value": "0.000822 average fractional NGS count over selection days 2 and 3 (reads of this peptide / all reads for the bait, averaged over …"}
{"variant": "chain 1 LEHLQRSPPDGQSFRS", "note": "[chain 1 P2E]", "screen value": "0.000462 average fractional NGS count over selection days 2 and 3 (reads of this peptide / all reads for the bait, averaged over …"}
{"variant": "chain 1 LGHLQRSPPDGQSFRS", "note": "[chain 1 P2G]", "screen value": "0.000225 average fractional NGS count over selection days 2 and 3 (reads of this peptide / all reads for the bait, averaged over …"}
{"variant": "chain 1 LSHLQRSPPDGQSFRS", "note": "[chain 1 P2S]", "screen value": "0.000402 average fractional NGS count over selection days 2 and 3 (reads of this peptide / all reads for the bait, averaged over …"}
{"variant": "chain 1 LQHLQRSPPDGQSFRS", "note": "[chain 1 P2Q]", "screen value": "0.000644 average fractional NGS count over selection days 2 and 3 (reads of this peptide / all reads for the bait, averaged over …"}
{"variant": "chain 1 LFHLQRSPPDGQSFRS", "note": "[chain 1 P2F]", "screen value": "0.00201 average fractional NGS count over selection days 2 and 3 (reads of this peptide / all reads for the bait, averaged over …"}
{"variant": "chain 1 LMHLQRSPPDGQSFRS", "note": "[chain 1 P2M]", "screen value": "0.000224 average fractional NGS count over selection days 2 and 3 (reads of this peptide / all reads for the bait, averaged over …"}
{"variant": "chain 1 LDHLQRSPPDGQSFRS", "note": "[chain 1 P2D]", "screen value": "0.00379 average fractional NGS count over selection days 2 and 3 (reads of this peptide / all reads for the bait, averaged over …"}
{"variant": "chain 1 LAHLQRSPPDGQSFRS", "note": "[chain 1 P2A]", "screen value": "0.00048 average fractional NGS count over selection days 2 and 3 (reads of this peptide / all reads for the bait, averaged over …"}
{"variant": "chain 1 LHHLQRSPPDGQSFRS", "note": "[chain 1 P2H]", "screen value": "0.000416 average fractional NGS count over selection days 2 and 3 (reads of this peptide / all reads for the bait, averaged over …"}
{"variant": "chain 1 LPHLQRSPPDGQSHRS", "note": "[chain 1 F14H]", "screen value": "0.000634 average fractional NGS count over selection days 2 and 3 (reads of this peptide / all reads for the bait, averaged over …"}
{"variant": "chain 1 LPHLQRSPPDGQSVRS", "note": "[chain 1 F14V]", "screen value": "0.000585 average fractional NGS count over selection days 2 and 3 (reads of this peptide / all reads for the bait, averaged over …"}
{"variant": "chain 1 LPHLQRSPPDGQSMRS", "note": "[chain 1 F14M]", "screen value": "0.0018 average fractional NGS count over selection days 2 and 3 (reads of this peptide / all reads for the bait, averaged over …"}
{"variant": "chain 1 LPHLQRSPPDGQSPRS", "note": "[chain 1 F14P]", "screen value": "0.000325 average fractional NGS count over selection days 2 and 3 (reads of this peptide / all reads for the bait, averaged over …"}
{"variant": "chain 1 LPHLQRSPPDGQSSRS", "note": "[chain 1 F14S]", "screen value": "0.00286 average fractional NGS count over selection days 2 and 3 (reads of this peptide / all reads for the bait, averaged over …"}
{"variant": "chain 1 LPHLQRSPPDGQSDRS", "note": "[chain 1 F14D]", "screen value": "0.000786 average fractional NGS count over selection days 2 and 3 (reads of this peptide / all reads for the bait, averaged over …"}
{"variant": "chain 1 LPHLQRSPPDGQSLRS", "note": "[chain 1 F14L]", "screen value": "0.000394 average fractional NGS count over selection days 2 and 3 (reads of this peptide / all reads for the bait, averaged over …"}
{"variant": "chain 1 LPHLQRSPPDGQSARS", "note": "[chain 1 F14A]", "screen value": "0.0212 average fractional NGS count over selection days 2 and 3 (reads of this peptide / all reads for the bait, averaged over …"}
{"variant": "chain 1 LPHLQRSPSDGQSFRS", "note": "[chain 1 P9S]", "screen value": "0.000178 average fractional NGS count over selection days 2 and 3 (reads of this peptide / all reads for the bait, averaged over …"}
{"variant": "chain 1 LPHLQRSPPDGQYFRS", "note": "[chain 1 S13Y]", "screen value": "0.00204 average fractional NGS count over selection days 2 and 3 (reads of this peptide / all reads for the bait, averaged over …"}
{"variant": "chain 1 LPHLQRSPPDGQPFRS", "note": "[chain 1 S13P]", "screen value": "0.00144 average fractional NGS count over selection days 2 and 3 (reads of this peptide / all reads for the bait, averaged over …"}
{"variant": "chain 1 LPHLQRSPPDGQTFRS", "note": "[chain 1 S13T]", "screen value": "0.00243 average fractional NGS count over selection days 2 and 3 (reads of this peptide / all reads for the bait, averaged over …"}
{"variant": "chain 1 LPHLQRSPPDGQNFRS", "note": "[chain 1 S13N]", "screen value": "0.000503 average fractional NGS count over selection days 2 and 3 (reads of this peptide / all reads for the bait, averaged over …"}
{"variant": "chain 1 LPHLQRSPPDGQHFRS", "note": "[chain 1 S13H]", "screen value": "0.00169 average fractional NGS count over selection days 2 and 3 (reads of this peptide / all reads for the bait, averaged over …"}
{"variant": "chain 1 LPHLERSPPDGQSFRS", "note": "[chain 1 Q5E]", "screen value": "0.000543 average fractional NGS count over selection days 2 and 3 (reads of this peptide / all reads for the bait, averaged over …"}
{"variant": "chain 1 LPHLSRSPPDGQSFRS", "note": "[chain 1 Q5S]", "screen value": "0.000417 average fractional NGS count over selection days 2 and 3 (reads of this peptide / all reads for the bait, averaged over …"}
{"variant": "chain 1 LPHLPRSPPDGQSFRS", "note": "[chain 1 Q5P]", "screen value": "0.000217 average fractional NGS count over selection days 2 and 3 (reads of this peptide / all reads for the bait, averaged over …"}
{"variant": "chain 1 LPHLMRSPPDGQSFRS", "note": "[chain 1 Q5M]", "screen value": "0.00158 average fractional NGS count over selection days 2 and 3 (reads of this peptide / all reads for the bait, averaged over …"}
{"variant": "chain 1 LPHLHRSPPDGQSFRS", "note": "[chain 1 Q5H]", "screen value": "0.0031 average fractional NGS count over selection days 2 and 3 (reads of this peptide / all reads for the bait, averaged over …"}
{"variant": "chain 1 LPHLFRSPPDGQSFRS", "note": "[chain 1 Q5F]", "screen value": "0.00256 average fractional NGS count over selection days 2 and 3 (reads of this peptide / all reads for the bait, averaged over …"}
{"variant": "chain 1 LPHLLRSPPDGQSFRS", "note": "[chain 1 Q5L]", "screen value": "0.000257 average fractional NGS count over selection days 2 and 3 (reads of this peptide / all reads for the bait, averaged over …"}
{"variant": "chain 1 LPHLTRSPPDGQSFRS", "note": "[chain 1 Q5T]", "screen value": "0.00193 average fractional NGS count over selection days 2 and 3 (reads of this peptide / all reads for the bait, averaged over …"}
{"variant": "chain 1 LPHLNRSPPDGQSFRS", "note": "[chain 1 Q5N]", "screen value": "0.000679 average fractional NGS count over selection days 2 and 3 (reads of this peptide / all reads for the bait, averaged over …"}
{"variant": "chain 1 LPHLARSPPDGQSFRS", "note": "[chain 1 Q5A]", "screen value": "0.000231 average fractional NGS count over selection days 2 and 3 (reads of this peptide / all reads for the bait, averaged over …"}
{"variant": "chain 1 LPHLVRSPPDGQSFRS", "note": "[chain 1 Q5V]", "screen value": "0.001 average fractional NGS count over selection days 2 and 3 (reads of this peptide / all reads for the bait, averaged over …"}
{"variant": "chain 1 LPHLGRSPPDGQSFRS", "note": "[chain 1 Q5G]", "screen value": "0.00123 average fractional NGS count over selection days 2 and 3 (reads of this peptide / all reads for the bait, averaged over …"}
{"variant": "chain 1 LPHLQRSDPDGQSFRS", "note": "[chain 1 P8D]", "screen value": "0.00888 average fractional NGS count over selection days 2 and 3 (reads of this peptide / all reads for the bait, averaged over …"}
{"variant": "chain 1 LPHLQRSEPDGQSFRS", "note": "[chain 1 P8E]", "screen value": "0.00169 average fractional NGS count over selection days 2 and 3 (reads of this peptide / all reads for the bait, averaged over …"}
{"variant": "chain 1 LPHLQRSKPDGQSFRS", "note": "[chain 1 P8K]", "screen value": "0.000693 average fractional NGS count over selection days 2 and 3 (reads of this peptide / all reads for the bait, averaged over …"}
{"variant": "chain 1 LPHLQRSTPDGQSFRS", "note": "[chain 1 P8T]", "screen value": "0.00538 average fractional NGS count over selection days 2 and 3 (reads of this peptide / all reads for the bait, averaged over …"}
{"variant": "chain 1 LPHLQRSHPDGQSFRS", "note": "[chain 1 P8H]", "screen value": "0.000697 average fractional NGS count over selection days 2 and 3 (reads of this peptide / all reads for the bait, averaged over …"}
{"variant": "chain 1 LPHLQRSIPDGQSFRS", "note": "[chain 1 P8I]", "screen value": "0.00231 average fractional NGS count over selection days 2 and 3 (reads of this peptide / all reads for the bait, averaged over …"}
{"variant": "chain 1 LPHLQRSQPDGQSFRS", "note": "[chain 1 P8Q]", "screen value": "0.00268 average fractional NGS count over selection days 2 and 3 (reads of this peptide / all reads for the bait, averaged over …"}
{"variant": "chain 1 LPHLQRSVPDGQSFRS", "note": "[chain 1 P8V]", "screen value": "0.00324 average fractional NGS count over selection days 2 and 3 (reads of this peptide / all reads for the bait, averaged over …"}
{"variant": "chain 1 LPHLQRSLPDGQSFRS", "note": "[chain 1 P8L]", "screen value": "0.00187 average fractional NGS count over selection days 2 and 3 (reads of this peptide / all reads for the bait, averaged over …"}
{"variant": "chain 1 LPHLQRSSPDGQSFRS", "note": "[chain 1 P8S]", "screen value": "0.000677 average fractional NGS count over selection days 2 and 3 (reads of this peptide / all reads for the bait, averaged over …"}
{"variant": "chain 1 LPHLQRSMPDGQSFRS", "note": "[chain 1 P8M]", "screen value": "0.00437 average fractional NGS count over selection days 2 and 3 (reads of this peptide / all reads for the bait, averaged over …"}
{"variant": "chain 1 LPHLQRSYPDGQSFRS", "note": "[chain 1 P8Y]", "screen value": "0.000667 average fractional NGS count over selection days 2 and 3 (reads of this peptide / all reads for the bait, averaged over …"}
